From patent US20040072207A1 (WHITEHEAD INSTITUTE FOR BIOMEDICAL RESEARCH, published 2004)

Target: mTOR (mammalian target of rapamycin), endogenous protein of human cell lines (human, UniProt P42345 1-2549)
Experiment: co-IP from transfected HEK293T cells, western blot (FIG. 6B, 8D)

binding result: no binding
B1: HA-raptor mut1 (194YDC196-AAA) (other, not shown: small tags and cut ends)
chain: MESEMLQSPLLGLGEEDEADLTDWNLPLAFMKKRHCEKIEGSKSLAQSWRMKDRMKTVSVALVLCLNVGVDPPDVVKTTPCARLECWIDPLSMGPQKALETIGANLQKQYENWQPRARYKQSLDPTVDEVKKLCTSLRRNAKEERVLFHYNGHGVPRPTVNGEVWVFNKNYTQYIPLSIYDLQTWMGSPSIFVAAASNAGLIVKSFKQFALQREQELEVAAINPNHPLAQMPLPPSMKNCIQLAACEATELLPMIPDLPADLFTSCLTTPIKIALRWFCMQKCVSLVPGVTLDLIEKIPGRLNDRRTPLGELNWIFTAITDTIAWNVLPRDLFQKLFRQDLLVASLFRNFLLAERIMRSYNCTPVSSPRLPPTYMHAMWQAWDLAVDICLSQLPTIIEEGTAFRHSPFFAEQLTAFQVWLTMGVENRNPPEQLPIVLQVLLSQVHRLRALDLLGRFLDLGPWAVSLALSVGIFPYVLKLLQSSARELRPLLVFIWAKILAVDSSCQADLVKDNGHKYFLSVLADPYMPAEHRTMTAFILAVIVNSYHTGQEACLQGNLIAICLEQLNDPHPLLRQWVAICLGRIWQNFDSARWCGVRDSAHEKLYSLLSDPIPEVRCAAVFALGTFVGNSAERTDHSTTIDHNVAMMLAQLVSDGSPMVRKELVVALSHLVVQYESNFCTVALQFIEEEKNYALPSPATTEGGSLTPVRDSPCTPRLRSVSSYGNIRAVATARSLNKSLQNLSLTEESGGAVAFSPGNLSTSSSASSTLGSPENEEHILSFETIDKMRRASSYSSLNSLIGVSFNSVYTQIWRVLLHLAADPYPEVSDVAMKVLNSIAYKATVNARPQRVLDTSSLTQSAPASPTNKGVHIHQAGGSPPASSTSSSSLTNDVAKQPVSRDLPSGRPGTTGPAGAQYTPHSHQFPRTRKMFDKGPEQTADDADDAAGHKSFISATVQTGFCDWSARYFAQPVMKIPEEHDLESQIRKEREWRFLRNSRVRRQAQQVIQKGITRLDDQIFLNRNPGVPSVVKFHPFTPCIAVADKDSICFWDWEKGEKLDYFHNGNPRYTRVTAMEYLNGQDCSLLLTATDDGAIRVWKNFADLEKNPEMVTAWQGLSDMLPTTRGAGMVVDWEQETGLLMSSGDVRIVRIWDTDREMKVQDIPTGADSCVTSLSCDSHRSLIVAGLGDGSIRVYDRRMALSECRVMTYREHTAWVVKASLQKRPDGHIVSVSVNGDVRIFDPRMPESVNVLQIVKGLTALDIHPQADLIACGSVNQFTAIYNSSGELINNIKYYDGFMGQRVGAISCLAFHPHWPHLAVGSNDYYISVYSVEKRVR
notes: also called mutant 1
